Reference: patent publication US20030165543A1 (LOMA LINDA UNIVERSITY, published 2003)

Target: bovine serum albumin (bovine, UniProt P02769 25-607)
Test: GM1-ELISA binding assay

Chain of bovine serum albumin (P02769 25-607 limits assumed): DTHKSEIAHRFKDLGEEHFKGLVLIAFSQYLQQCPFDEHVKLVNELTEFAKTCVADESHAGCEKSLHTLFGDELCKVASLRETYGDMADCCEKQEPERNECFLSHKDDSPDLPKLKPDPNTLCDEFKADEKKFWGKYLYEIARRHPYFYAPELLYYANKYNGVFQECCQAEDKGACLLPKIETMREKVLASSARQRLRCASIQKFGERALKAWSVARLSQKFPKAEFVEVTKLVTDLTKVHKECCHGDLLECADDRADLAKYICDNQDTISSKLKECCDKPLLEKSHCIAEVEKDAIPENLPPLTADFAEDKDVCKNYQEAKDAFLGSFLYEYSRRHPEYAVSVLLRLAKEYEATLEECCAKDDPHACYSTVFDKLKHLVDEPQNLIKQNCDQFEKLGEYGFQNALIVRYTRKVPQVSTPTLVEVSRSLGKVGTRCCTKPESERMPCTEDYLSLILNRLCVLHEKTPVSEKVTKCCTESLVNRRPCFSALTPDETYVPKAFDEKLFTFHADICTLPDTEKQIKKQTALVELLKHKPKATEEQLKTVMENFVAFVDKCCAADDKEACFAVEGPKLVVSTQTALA

B1: bacterial cholera toxin B subunit (CTB), pentameric (other)
chain: TPQNITDLCAEYHNTQIYTLNDKIFSYTESLAGKREMAIITFKNGAIFQVEVPGSQHIDSQKKAIERMKDTLRIAYLTEAKVEKLCVWNNKTPHAIAAISMAN
B1: no binding.
